In patent publication US7985889B2, “AtMIN7 mediated disease resistance to Pseudomonas syringae in Arabidopsis” (priority 2007, dated 2011):

What was measured:
Pst DC3000 [1] = assay: Brefeldin A treatment of bacteria-infiltrated detached Arabidopsis leaves: bacterial multiplication and disease symptoms; format: in vivo; conditions: Col-0 gl1 plants treated with water or BFA
Procedure: (§1) A standard enumeration procedure involves pathogen inoculation, using any one of described methods, supra, followed by assaying bacterial populations present within host tissues at regular intervals. The population present within the tissue was calculated based on the dilution factor divided by the amount of tissue present in each sample. Plotting log (culturable bacterial number/cm^2 leaf tissue) against time (usually in days) after pathogen inoculation produced an unfitted curve, i.e. growth curve. For a review of methods, see, Katagiri et al., in The Arabidopsis Book, Somerville, Meyerowitz, Eds. (American Society of Plant Biologists, Rockville, Md., 2002), website://dx.doi.org/10.1199/tab.0039; herein incorporated by reference.
(§2) Leaves were harvested and surface sterilized as follows: 1) whole leaves were removed from a host plant and gently mixed in a 70% ethanol solution for 1 minute. Leaves were blotted briefly on paper towels then rinsed in sterile distilled water for 1 minute, then blotted dry on paper towels. Leaf disks were excised from leaves with a 0.5 cm^2 or smaller cork borer, depending on the size of the sample leaves; 2) leaf disks from the leaves of 2 or more independent replicate plants were pooled for a single tissue sample and placed in a 1.5-mL microfuge tube with 100 μL sterile distilled water, the amount of leaf tissue per tube was recorded as leaf surface area. Three or more samples were harvested for each time point. Steps 1 and 2 were repeated for each sample; 3) Tissue samples were ground with a microfuge tube plastic pestle, by hand or by using a small hand-held electric drill. […] The number of serial dilutions necessary to get countable colonies were determined for each sample, however dilutions to 10^−7 were usually sufficient for any bacterial strain; 7) The samples were plated on the appropriate medium (e.g., Low salt Luria Bertani) supplemented with the necessary antibiotics to select for the specific inoculated bacterial strain. Plating was done in the traditional way (100 μL of a single sample was spread on a single plate) or several 10 μL aliquots of the 1:10 serial dilutions were spotted on to a single plate and allowed to dry onto the surface; and 8) Plates were placed at 30° C. for approximately 2 days with a cfu value determined for each dilution of each sample. […]
(§3) Leaves were infiltrated with 1×10^6 cfu/ml of bacteria, detached, and placed in microtiter wells with petioles immersed in the 36 μM BFA (Sigma Co.) solution. […] Bacterial populations and disease symptoms were determined on day 0 and day three.

hrcC mutant = assay: as above; format: in vivo; conditions: Col-0 gl1 plants treated with water or BFA
Procedure: as §1, §2, §3

Pst DC3000 ΔCEL mutant [2] = assay: as above; format: in vivo
Procedure: as §1, §2, §3

AtMIN7 = assay: Detection of polyubiquitinated AtMIN7 in planta (western blot, ubiquitin antibody); format: cell-based, Nicotiana benthamiana; conditions: MG132-treated N. benthamiana leaves
Source text: Left: AtMIN7::HA and 6×His::HopM1-300, 6×His::HopM301-712 or 6×His::HopM1-712 were transiently co-expressed in MG132-treated N. benthamiana leaves. Ubiquitinated proteins were detected by western blot (WB) with a polyclonal ubiquitin (Ub) antibody (Sigma Co.). Right: AtMIN7::HA and 6×His::HopM1-712 were transiently co-expressed in 1% DMSO(−)- or MG132-treated N. benthamiana leaves. AtMIN7 was immunoprecipitated (IP) using a polyclonal AtMIN7 antibody. Ubiquitinated AtMIN7 protein was detected by western blot (WB) with a polyclonal ubiquitin (Ub) antibody (Sigma Co.). See Materials and Methods for transient expression and immunoprecipitation of AtMIN7 and HopM1 in N. benthamiana leaves.

Pst DC3000 ΔCEL mutant [3] = assay: Complementation of virulence defect in transgenic Arabidopsis expressing HopM1 or truncated derivatives; format: in vivo; conditions: protein expressed in transgenic Arabidopsis after DEX
Procedure: (§4) Following inoculation, infected plants were monitored daily over a 3- to 4-day period for symptom development and bacterial multiplication. For experiments described in FIGS. 1 and 5, plants were sprayed with 30 μM dexamethasone (DEX) 24 h before bacterial inoculation (1×10^6 cfu/ml).
as §2, with “point.” for “point. Steps 1 and 2 were repeated for each sample; 3) Tissue samples were ground with a microfuge tube plastic pestle, by hand or by using a small hand-held electric drill.”, “strain.” for “strain. Plating was done in the traditional way (100 μL of a single sample was spread on a single plate) or several 10 μL aliquots of the 1:10 serial dilutions were spotted on to a single plate and allowed to dry onto the surface; and 8) Plates were placed at 30° C. for approximately 2 days with a cfu value determined for each dilution of each sample.”

Pst DC3000 [4] = assay: Bacterial multiplication and disease symptoms in transgenic Arabidopsis expressing HopM1 truncated derivatives; format: in vivo; conditions: fragment expressed in transgenic Arabidopsis
Procedure: as §4
as §2, with “point.” for “point. Steps 1 and 2 were repeated for each sample; 3) Tissue samples were ground with a microfuge tube plastic pestle, by hand or by using a small hand-held electric drill.”, “strain.” for “strain. Plating was done in the traditional way (100 μL of a single sample was spread on a single plate) or several 10 μL aliquots of the 1:10 serial dilutions were spotted on to a single plate and allowed to dry onto the surface; and 8) Plates were placed at 30° C. for approximately 2 days with a cfu value determined for each dilution of each sample.”

[5] = tested on: Pst DC3000 ΔCEL mutant-pORF43 bacteria; assay: as above; format: in vivo; conditions: fragment expressed in transgenic Arabidopsis, compared with Col-0 gl1 or other truncated derivatives
Procedure: as §4
as §2, with “point.” for “point. Steps 1 and 2 were repeated for each sample; 3) Tissue samples were ground with a microfuge tube plastic pestle, by hand or by using a small hand-held electric drill.”, “strain.” for “strain. Plating was done in the traditional way (100 μL of a single sample was spread on a single plate) or several 10 μL aliquots of the 1:10 serial dilutions were spotted on to a single plate and allowed to dry onto the surface; and 8) Plates were placed at 30° C. for approximately 2 days with a cfu value determined for each dilution of each sample.”

AtMIN7-HA = target: T1, AtMIN7-HA (Arabidopsis thaliana, UniProt F4IXW2, DEL212-213/INS429[…]); assay: Protein pull-down assay and immunoblot in N. benthamiana leaves; format: binding; conditions: transient co-expression in N. benthamiana leaves, Ni-NTA pull-down
T1 construct: expressed in transfected cells; host or cells: Nicotiana benthamiana leaves, Agrobacterium tumefaciens C58C1 co-infiltration (pBI121-AtMIN or pBAR1-AtMIN)
T1 sequence (F4IXW2 with tags, fused parts or gaps DEL212-213/INS429[withheld]): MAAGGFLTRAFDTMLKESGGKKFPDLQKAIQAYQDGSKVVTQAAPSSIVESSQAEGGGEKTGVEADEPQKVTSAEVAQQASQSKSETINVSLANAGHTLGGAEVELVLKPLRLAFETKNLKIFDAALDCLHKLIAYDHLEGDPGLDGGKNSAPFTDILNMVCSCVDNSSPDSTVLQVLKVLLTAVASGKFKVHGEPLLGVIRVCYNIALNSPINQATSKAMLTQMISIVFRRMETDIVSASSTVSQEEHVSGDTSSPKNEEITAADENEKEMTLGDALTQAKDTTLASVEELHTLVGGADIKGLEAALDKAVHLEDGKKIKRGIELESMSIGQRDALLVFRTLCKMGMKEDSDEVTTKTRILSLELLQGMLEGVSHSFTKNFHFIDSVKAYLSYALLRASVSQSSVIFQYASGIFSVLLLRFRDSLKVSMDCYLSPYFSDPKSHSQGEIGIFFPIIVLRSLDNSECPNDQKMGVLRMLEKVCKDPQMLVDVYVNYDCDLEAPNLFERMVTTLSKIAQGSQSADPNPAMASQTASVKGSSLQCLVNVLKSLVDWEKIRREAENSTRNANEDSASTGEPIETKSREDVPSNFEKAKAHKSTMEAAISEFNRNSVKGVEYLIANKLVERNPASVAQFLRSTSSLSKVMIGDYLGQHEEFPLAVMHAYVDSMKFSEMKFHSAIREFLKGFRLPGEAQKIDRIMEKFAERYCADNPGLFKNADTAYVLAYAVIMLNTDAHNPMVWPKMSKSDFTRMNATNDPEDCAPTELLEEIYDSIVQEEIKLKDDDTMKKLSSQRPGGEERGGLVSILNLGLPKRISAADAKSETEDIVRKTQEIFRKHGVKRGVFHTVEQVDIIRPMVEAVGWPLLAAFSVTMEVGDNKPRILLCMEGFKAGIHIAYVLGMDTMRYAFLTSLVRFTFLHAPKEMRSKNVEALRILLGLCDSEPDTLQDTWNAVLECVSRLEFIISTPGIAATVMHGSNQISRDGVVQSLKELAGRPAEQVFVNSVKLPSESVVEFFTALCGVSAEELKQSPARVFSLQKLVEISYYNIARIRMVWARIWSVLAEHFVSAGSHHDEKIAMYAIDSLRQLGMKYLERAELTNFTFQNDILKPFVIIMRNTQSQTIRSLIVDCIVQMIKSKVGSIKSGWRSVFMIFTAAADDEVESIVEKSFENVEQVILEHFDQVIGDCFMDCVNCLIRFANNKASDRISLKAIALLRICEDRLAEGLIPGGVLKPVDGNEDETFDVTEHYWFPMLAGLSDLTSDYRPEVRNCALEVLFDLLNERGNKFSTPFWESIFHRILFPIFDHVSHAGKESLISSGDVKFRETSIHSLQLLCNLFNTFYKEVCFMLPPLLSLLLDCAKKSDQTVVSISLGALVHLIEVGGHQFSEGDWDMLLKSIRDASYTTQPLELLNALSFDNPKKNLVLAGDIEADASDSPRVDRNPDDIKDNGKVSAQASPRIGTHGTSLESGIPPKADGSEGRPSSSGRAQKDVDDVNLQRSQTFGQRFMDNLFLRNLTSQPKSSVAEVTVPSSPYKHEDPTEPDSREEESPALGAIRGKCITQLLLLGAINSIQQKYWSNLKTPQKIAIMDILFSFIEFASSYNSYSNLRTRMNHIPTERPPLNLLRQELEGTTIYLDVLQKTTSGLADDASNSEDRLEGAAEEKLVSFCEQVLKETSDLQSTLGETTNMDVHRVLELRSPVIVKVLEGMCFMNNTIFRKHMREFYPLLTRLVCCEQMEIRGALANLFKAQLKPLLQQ
Source text: N. benthamiana plants were transiently transformed with HopM1 and AtMIN proteins. In brief, fully expanded N. benthamiana leaves were co-infiltrated with Agrobacterium tumefaciens C58 C1 (for an example of co-infiltration techniques, see, Hellens, et al. (2005) Plant Methods, 1:13; herein incorporated by reference) comprising plasmids and genes described herein (for example, see, Bechtold, et al. (1993) Comptes Rendus De L Academie Des Sciences Serie Iii-Sciences De La Vie-Life Sciences 316(10):1194-1199; herein incorporated by reference).
In brief: leaf disc fractions were homogenized in 1×SDS-polyacrylamide gel electrophoresis (PAGE) sample buffer, boiled for 5 min, and centrifuged for 2 minutes. Proteins in the supernatant were separated on SDS-PAGE gels and transferred to Immobilon-P membrane for immunoblotting procedures (Millipore Corp., Bedford, Mass.).
Protein pull-down analysis methods: N. benthamiana leaf discs were homogenized in lysis buffer (50 mM Tris-HCl pH=8.0, 250 mM NaCl, 10 mM β-mercaptoethanol, 1% Triton X100, 1 mM PMSF, plant protease inhibitor cocktail [Sigma Co.]). Total protein extracts were collected after centrifugation of the homogenate at 20,000-x g for 15 min at 4° C. to remove insoluble materials. […] AtMIN10-HA was detected using the HA epitope antibody.

With `C[C@H]1CCC/C=C/[C@@H]2C[C@H](O)C[C@H]2[C@H](O)/C=C/C(=O)O1` [BFA, Brefeldin A] the “multiplication or disease symptoms caused by Pst DC3000” value (Pst DC3000 [1]) was “no significant differences”, the “multiplication or disease symptoms caused by the hrcC mutant” value (hrcC mutant) was “no significant differences” and the “virulence (both multiplication and disease symptoms) of the Pst DC3000 ΔCEL mutant” value (Pst DC3000 ΔCEL mutant [2]; 36 μM BFA, wild-type Col-0 gl1 leaves infiltrated with 1×10^6 cfu/ml, day three, vs water) was “significantly enhanced”. The “restoration of the virulence of the Pst DC3000 ΔCEL mutant, BFA-treated leaves compared with AtMIN7 KO plants” value (Pst DC3000 ΔCEL mutant [2]; BFA-treated leaves) was “greater than that in the AtMIN7 KO plants”.

B1: full-length HopM1: Pst DC3000 HopM1, a 712-aa type III effector virulence protein (SEQ ID NO:34) (protein)
chain: MISSRIGGAGGVELSRVNQQHDTVPAQTAHPNAVTAGMNPPLTPDQSGSHATESSSAGAARLNVAARHTQLLQAFKAEHGTAPVSGAPMISSRAALLIGSLLQAEPLPFEVMAEKLSPERYQLKQFQGSDLQQRLEKFAQPGQIPDKAEVGQLIKGFAQSVADQLEHFQLMHDASPATVGQHAKADKATLAVSQTALGEYAGRASKAIGEGLSNSIASLDEHISALDLTLQDAEQGNKESLHADRQALVDAKTTLVGLHADFVKSPEAKRLASVAAHTQLDNVVSDLVTARNTVGGWKGAGPIVAAAVPQFLSSMTHLGYVRLSTSDKLRDTIPETSSDANMLKASIIGMVAGIAHETVNSVVKPMFQAALQKTGLNERLNMVPMKAVDTNTVIPDPFELKSEHGELVKKTPEEVAQDKAFVKSERALLNQKKVQGSSTHPVGELMAYSAFGGSQAVRQMLNDVHQINGQTLSARALASGFGGAVSASSQTLLQLKSNYVDPQGRKIPVFTPDRAESDLKKDLLKGMDLREPSVRTTFYSKALSGIQSSALTSALPPVTAQAEGASGTLSAGAILRNMALAATGSVSYLSTLYTNQSVTAEAKALKAAGMGGATPMLDRTETALNNIRHPNRESLPHTFQKSTLSGIPRVAENAYHMGRGALQLPTQMAVDTVRVVDEGVLNAVASAREALKQPTKDDDALRALEEGLLDPR
modifications: Pseudomonas syringae pv. tomato str. DC3000
For B1, the “polyubiquitination of AtMIN7 in vivo” value (AtMIN7) was “enhanced” and the “complementation of the virulence defect (multiplication, chlorosis) of the Pst DC3000 ΔCEL mutant” value (Pst DC3000 ΔCEL mutant [3]) was “almost fully complemented”.

B2: HopM11-300: N-terminal protective fragment of HopM1, amino acids 1-300 (SEQ ID NO:82) (protein, listed as Pseudomonas syringae)
chain: MISSRIGGAGGVELSRVNQQHDTVPAQTAHPNAVTAGMNPPLTPDQSGSHATESSSAGAARLNVAARHTQLLQAFKAEHGTAPVSGAPMISSRAALLIGSLLQAEPLPFEVMAEKLSPERYQLKQFQGSDLQQRLEKFAQPGQIPDKAEVGQLIKGFAQSVADQLEHFQLMHDASPATVGQHAKADKATLAVSQTALGEYAGRASKAIGEGLSNSIASLDEHISALDLTLQDAEQGNKESLHADRQALVDAKTTLVGLHADFVKSPEAKRLASVAAHTQLDNVVSDLVTARNTVGGWKGA
For B2, the “susceptibility to Pst DC3000” value (Pst DC3000 [4]) was “still susceptible”, the “disease symptoms (necrosis and chlorosis) and bacterial multiplication within plants” value [5] was “significantly reduced” and the “physical interaction with AtMIN7-HA” value (AtMIN7-HA) was “physical interaction”.
